Assay results reported in patent publication US20160002331A1.

Assays:
Experiment in all cases: cell-based or functional assay
[1] = molecular target: Notch1 receptor with L1594P/D1610V mutations (DND-41 cells), P46531
[2] = molecular target: Notch1 receptor with L1594P mutation (ALL-SIL cells), P46531
[3] = molecular target: Notch1 receptor with a 17 amino acid insertion at position 1740 (Jurkat cells), P46531
[4] = molecular target: Notch1 receptor with L1601P mutation (MOLT-4 cells), P46531
Notch1 receptor with L1601P mutation (MOLT-4 cells), P46531, sequence (P46531 19-2555, stated change not applied): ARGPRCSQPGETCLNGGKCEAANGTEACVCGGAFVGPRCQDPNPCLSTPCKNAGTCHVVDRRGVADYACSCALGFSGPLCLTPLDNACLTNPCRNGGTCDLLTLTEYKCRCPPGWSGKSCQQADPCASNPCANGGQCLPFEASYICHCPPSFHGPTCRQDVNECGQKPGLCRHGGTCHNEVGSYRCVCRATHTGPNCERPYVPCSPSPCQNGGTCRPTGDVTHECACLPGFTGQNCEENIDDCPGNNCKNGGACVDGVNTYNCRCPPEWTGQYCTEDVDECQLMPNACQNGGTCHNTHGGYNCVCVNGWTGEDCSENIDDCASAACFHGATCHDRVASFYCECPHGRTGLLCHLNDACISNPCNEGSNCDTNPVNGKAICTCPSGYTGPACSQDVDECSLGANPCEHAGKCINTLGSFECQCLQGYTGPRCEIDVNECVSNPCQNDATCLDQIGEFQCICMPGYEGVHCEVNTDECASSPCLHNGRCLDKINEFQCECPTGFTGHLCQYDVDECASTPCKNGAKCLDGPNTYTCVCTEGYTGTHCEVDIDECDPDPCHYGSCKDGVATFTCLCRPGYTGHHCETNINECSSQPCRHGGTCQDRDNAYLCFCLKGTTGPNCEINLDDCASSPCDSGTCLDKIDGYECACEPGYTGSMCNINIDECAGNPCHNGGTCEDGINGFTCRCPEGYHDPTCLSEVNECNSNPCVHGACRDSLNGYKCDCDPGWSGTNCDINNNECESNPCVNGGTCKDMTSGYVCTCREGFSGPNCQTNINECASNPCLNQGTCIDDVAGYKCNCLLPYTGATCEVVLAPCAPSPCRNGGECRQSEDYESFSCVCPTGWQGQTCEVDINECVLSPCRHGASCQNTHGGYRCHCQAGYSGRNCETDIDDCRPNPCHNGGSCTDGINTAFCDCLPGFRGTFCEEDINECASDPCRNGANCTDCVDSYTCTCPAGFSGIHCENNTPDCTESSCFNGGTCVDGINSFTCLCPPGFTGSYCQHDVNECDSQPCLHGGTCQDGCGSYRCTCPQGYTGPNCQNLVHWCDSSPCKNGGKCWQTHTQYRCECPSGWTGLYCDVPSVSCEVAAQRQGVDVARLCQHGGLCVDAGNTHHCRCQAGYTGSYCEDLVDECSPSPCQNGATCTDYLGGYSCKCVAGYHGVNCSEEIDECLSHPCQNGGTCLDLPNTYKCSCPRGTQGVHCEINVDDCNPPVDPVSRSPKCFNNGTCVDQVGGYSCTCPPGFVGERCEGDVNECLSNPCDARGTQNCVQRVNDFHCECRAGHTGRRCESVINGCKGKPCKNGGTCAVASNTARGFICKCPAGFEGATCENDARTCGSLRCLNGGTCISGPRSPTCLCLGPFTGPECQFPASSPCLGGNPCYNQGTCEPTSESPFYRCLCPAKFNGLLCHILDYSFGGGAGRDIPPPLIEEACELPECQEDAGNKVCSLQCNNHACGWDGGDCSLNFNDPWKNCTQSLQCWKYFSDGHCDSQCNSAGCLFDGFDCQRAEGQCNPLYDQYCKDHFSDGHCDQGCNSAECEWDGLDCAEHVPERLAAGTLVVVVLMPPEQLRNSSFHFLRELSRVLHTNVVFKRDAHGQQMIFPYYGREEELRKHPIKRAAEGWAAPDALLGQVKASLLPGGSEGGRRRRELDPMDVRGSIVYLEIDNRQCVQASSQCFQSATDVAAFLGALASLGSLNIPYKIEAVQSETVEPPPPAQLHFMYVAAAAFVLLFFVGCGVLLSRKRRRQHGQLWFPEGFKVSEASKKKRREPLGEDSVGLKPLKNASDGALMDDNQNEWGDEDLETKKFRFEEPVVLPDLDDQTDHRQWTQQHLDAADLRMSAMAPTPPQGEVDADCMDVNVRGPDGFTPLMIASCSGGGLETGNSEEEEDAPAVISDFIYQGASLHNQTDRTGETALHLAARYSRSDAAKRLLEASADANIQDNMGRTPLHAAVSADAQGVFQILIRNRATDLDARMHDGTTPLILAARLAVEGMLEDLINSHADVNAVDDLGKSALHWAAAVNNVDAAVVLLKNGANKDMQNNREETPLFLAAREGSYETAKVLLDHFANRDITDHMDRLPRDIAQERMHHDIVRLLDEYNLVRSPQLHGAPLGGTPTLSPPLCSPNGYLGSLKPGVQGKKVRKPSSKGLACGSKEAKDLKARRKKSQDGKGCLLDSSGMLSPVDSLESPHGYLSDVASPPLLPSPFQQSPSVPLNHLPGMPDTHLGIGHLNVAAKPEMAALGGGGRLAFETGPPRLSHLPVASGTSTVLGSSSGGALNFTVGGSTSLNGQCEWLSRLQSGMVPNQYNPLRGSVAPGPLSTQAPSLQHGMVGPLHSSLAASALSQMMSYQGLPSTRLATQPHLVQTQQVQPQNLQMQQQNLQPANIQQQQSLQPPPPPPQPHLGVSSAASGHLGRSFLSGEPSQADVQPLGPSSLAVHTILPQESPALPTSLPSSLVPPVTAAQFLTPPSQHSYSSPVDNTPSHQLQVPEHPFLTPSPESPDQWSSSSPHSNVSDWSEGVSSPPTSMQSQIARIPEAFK

Notch1 receptor with L1594P mutation (ALL-SIL cells), P46531, sequence (P46531 19-2555, stated change not applied): as above
Notch1 receptor with a 17 amino acid insertion at position 1740 (Jurkat cells), P46531, sequence (P46531 19-2555): as the sequence (P46531 19-2555, stated change not applied) above
Notch1 receptor with L1594P/D1610V mutations (DND-41 cells), P46531, sequence (P46531 19-2555, stated change not applied): as above

Normalized Notch1^ICD level, DND-41 cells, 0.001 µg/ml antibody (relative to untreated) [1]: 1.02
Normalized Notch1^ICD level, DND-41 cells, 0.01 µg/ml antibody (relative to untreated) [1]: 0.988
Normalized Notch1^ICD level, DND-41 cells, 0.1 µg/ml antibody (relative to untreated) [1]: 0.367
Normalized Notch1^ICD level, DND-41 cells, 1 µg/ml antibody (relative to untreated) [1]: 0.322
Normalized Notch1^ICD level, DND-41 cells, 10 µg/ml antibody (relative to untreated) [1]: 0.219
Normalized Notch1^ICD level, ALL-SIL cells, 0.001 µg/ml antibody (relative to untreated) [2]: 0.982
Normalized Notch1^ICD level, ALL-SIL cells, 0.01 µg/ml antibody (relative to untreated) [2]: 0.712
Normalized Notch1^ICD level, ALL-SIL cells, 0.1 µg/ml antibody (relative to untreated) [2]: 0.08
Normalized Notch1^ICD level, ALL-SIL cells, 1 µg/ml antibody (relative to untreated) [2]: 0.03
Normalized Notch1^ICD level, ALL-SIL cells, 10 µg/ml antibody (relative to untreated) [2]: 0.019
Normalized Notch1^ICD level, Jurkat cells, 0.001 µg/ml antibody (relative to untreated) [3]: 1.53
Normalized Notch1^ICD level, Jurkat cells, 0.01 µg/ml antibody (relative to untreated) [3]: 1.44
Normalized Notch1^ICD level, Jurkat cells, 0.1 µg/ml antibody (relative to untreated) [3]: 1.41
Normalized Notch1^ICD level, Jurkat cells, 1 µg/ml antibody (relative to untreated) [3]: 1.08
Normalized Notch1^ICD level, Jurkat cells, 10 µg/ml antibody (relative to untreated) [3]: 1.2
Normalized Notch1^ICD level, MOLT-4 cells, 0.01 µg/ml antibody (relative to untreated) [4]: 1.52
Normalized Notch1^ICD level, MOLT-4 cells, 0.1 µg/ml antibody (relative to untreated) [4]: 0.751
Normalized Notch1^ICD level, MOLT-4 cells, 1 µg/ml antibody (relative to untreated) [4]: 0.284
Normalized Notch1^ICD level, MOLT-4 cells, 10 µg/ml antibody (relative to untreated) [4]: 0.082
B1: rat 351-mIgG1 (antibody, V domains shown)
VH: EVQLVESGGGLVQPGRSLKVSCLASGFTFSHYGMNWIRQAPGKGLDWVASISRSGSYIRYVDTVKGRFTVSRDIAKNTLYLQMTSLRSEDTALYYCAREGQFGDYFEYWGQGVMVTVSS
VL: DIMLTQSPATLSVTPGERISLSCRASQKISTNLHWYQQKPNESPRILIKYASQTISGIPSRFSGSGSGTDFTLHINTVEPEDFSVYYCQQTNSWPLTFGSGTKLEIK
